In patent US20210130436A1:

molecular target: PD-L1 (human) (UniProt Q9NZQ7); test: cell-based or functional assay
Sequence (Q9NZQ7 19-290): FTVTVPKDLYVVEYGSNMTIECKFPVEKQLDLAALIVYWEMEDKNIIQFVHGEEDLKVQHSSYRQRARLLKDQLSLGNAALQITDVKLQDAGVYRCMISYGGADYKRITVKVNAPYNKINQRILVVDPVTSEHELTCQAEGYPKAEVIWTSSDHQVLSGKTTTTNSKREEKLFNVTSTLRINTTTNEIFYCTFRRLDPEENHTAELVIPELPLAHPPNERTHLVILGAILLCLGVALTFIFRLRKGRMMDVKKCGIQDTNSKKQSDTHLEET

Row | Substance | RLU, Jurkat/IL2 + CHO/OKT3/PD-L1 Reporter Assay, CD80 Conc 5.0 nM | Jurkat/IL2 + CHO/OKT3/PD-L1 reporter assay, RLU at CD80 Conc 5.0 nM
1 | CD80 IgV-Fc (inert) H18A/A26N/E35D/M47L/V68M/A71G/D90G (from UniProt P33681 35-141) (Fc fusion) | 1050 RLU | 
2 | CD80 IgV-Fc (inert) H18C/A26P/E35D/M47L/V68M/A71G (from UniProt P33681 35-141) (Fc fusion) | 936 RLU | 
3 | CD80 IgV-Fc (inert) H18F/A26P/E35D/M47I/V68M/A71G/D90G (from UniProt P33681 35-141) (Fc fusion) | 926 RLU | 
4 | CD80 IgV-Fc (inert) H18R/A26P/E35D/D46N/M47V/V68M/A71G/D90P (from UniProt P33681 35-141) (Fc fusion) | 972 RLU | 
5 | CD80 IgV-Fc (inert) H18T/A26N/E35D/M47L/V68M/A71G (from UniProt P33681 35-141) (Fc fusion) | 1050 RLU | 
6 | CD80 IgV-Fc (inert) H18V/A26D/E35D/M47V/V68M/A71G/D90G (from UniProt P33681 35-141) (Fc fusion) | 771 RLU | 
7 | CD80 IgV-Fc (inert) H18V/A26K/E35D/M47L/V68M/A71G (from UniProt P33681 35-141) (Fc fusion) | 957 RLU | 
8 | CD80 IgV-Fc (inert) H18V/A26N/E35D/M47V/V68M/A71G (from UniProt P33681 35-141) (Fc fusion) | 985 RLU | 
9 | CD80 IgV-Fc (inert) H18V/A26R/E35D/M47L/V68M/A71G/D90G (from UniProt P33681 35-141) (Fc fusion) | 738 RLU | 
10 | CD80 IgV-Fc (inert) H18Y/A26P/E35D/M47I/V68M/A71G (from UniProt P33681 35-141) (Fc fusion) | 761 RLU | 
11 | CD80 IgV-Fc (inert) H18Y/A26Q/E35D/M47T/V68M/A71G/D90G (from UniProt P33681 35-141) (Fc fusion) | 994 RLU | 
12 | CD80 IgV-Fc (inert) H18Y/E35D/M47V/V68M/A71G (from UniProt P33681 35-141) (Fc fusion) | 963 RLU | 
13 | CD80 IgV-Fc D46V/M47I/A71G (from UniProt P33681 35-141) (Fc fusion) |  | 1600 RLU
14 | CD80 IgV-Fc E35D/D46E (from UniProt P33681 35-141) (Fc fusion) |  | 1960 RLU
15 | CD80 IgV-Fc E35D/D46E/A91G (from UniProt P33681 35-141) (Fc fusion) |  | 395 RLU
16 | CD80 IgV-Fc E35D/D46E/L85M (from UniProt P33681 35-141) (Fc fusion) |  | 1410 RLU
17 | CD80 IgV-Fc E35D/D46E/M47I (from UniProt P33681 35-141) (Fc fusion) |  | 1920 RLU

Row | Substance | RLU, Jurkat/IL2 + CHO/OKT3/PD-L1 Reporter Assay, CD80 Conc 5.0 nM | Jurkat/IL2 + CHO/OKT3/PD-L1 reporter assay, RLU at CD80 Conc 5.0 nM
18 | CD80 IgV-Fc E35D/L97R (from UniProt P33681 35-141) (Fc fusion) |  | 914 RLU
19 | CD80 IgV-Fc E35D/M43I/D46E/A71G/L85M (from UniProt P33681 35-141) (Fc fusion) |  | 1480 RLU
20 | CD80 IgV-Fc E35D/M43I/M47L/L85M (from UniProt P33681 35-141) (Fc fusion) |  | 1430 RLU
21 | CD80 IgV-Fc E35D/M47L/A71G (from UniProt P33681 35-141) (Fc fusion) |  | 1950 RLU
22 | CD80 IgV-Fc E35D/M47L/A71G/L85M (from UniProt P33681 35-141) (Fc fusion) |  | 1510 RLU
23 | CD80 IgV-Fc E35D/M47V (from UniProt P33681 35-141) (Fc fusion) |  | 1350 RLU
24 | CD80 IgV-Fc E35D/M47V/I61V/L85M (from UniProt P33681 35-141) (Fc fusion) |  | 1180 RLU
25 | CD80 IgV-Fc E35D/M47V/L85M/R94Q (from UniProt P33681 35-141) (Fc fusion) |  | 466 RLU
26 | CD80 IgV-Fc E35D/M47V/T62S/L85Q (from UniProt P33681 35-141) (Fc fusion) |  | 1400 RLU
27 | CD80 IgV-Fc E35D/N48K/L72V (from UniProt P33681 35-141) (Fc fusion) |  | 1730 RLU
28 | CD80 IgV-Fc E35D/T41S/N48T (from UniProt P33681 35-141) (Fc fusion) |  | 1140 RLU
29 | CD80 IgV-Fc H18Y/E35D/M47L/A71G/A91S (from UniProt P33681 35-141) (Fc fusion) |  | 1900 RLU
30 | CD80 IgV-Fc M43I/M47L/A71G (from UniProt P33681 35-141) (Fc fusion) |  | 1640 RLU
31 | CD80 IgV-Fc M47I/A71G (from UniProt P33681 35-141) (Fc fusion) |  | 1760 RLU
32 | CD80 IgV-Fc Q27H/E35D/M47I (from UniProt P33681 35-141) (Fc fusion) |  | 1830 RLU
33 | CD80 IgV-Fc Q27L/E35D/M47V/I61V/L85M (from UniProt P33681 35-141) (Fc fusion) |  | 1170 RLU

molecular target: CD28 (human) (UniProt P10747); test: cell-based or functional assay

Row | Substance | Fold Increase over WT CD80-IgV-Fc, same assay, 50 nM | IL-2-luciferase RLU, Jurkat + K562/OKT3/PD-L1 aAPC, 50 nM
34 | variant CD80 IgV-Fc (inert) Q33L/E35D/M47V/T79A (Fc fusion) | 0.9 fold | 527 RLU
35 | variant CD80 IgV-Fc (inert) Q33L/E35D/N48K/L85Q/L97Q (Fc fusion) | 0.6 fold | 358 RLU
36 | variant CD80 IgV-Fc (inert) Q33L/E35D/T41S/M43I (Fc fusion) | 0.9 fold | 533 RLU
37 | variant CD80 IgV-Fc (inert) Q33L/E35D/T41S/M47V (Fc fusion) |  | 481 RLU
38 | variant CD80 IgV-Fc (inert) Q33R/E35D/D46E/M47I (Fc fusion) | 0.9 fold | 522 RLU
39 | variant CD80 IgV-Fc (inert) Q33R/E35D/K37E/M47V/L85Q (Fc fusion) |  | 464 RLU
40 | variant CD80 IgV-Fc (inert) S15P/Q33L/E35D/M47L/L85Q (Fc fusion) |  | 468 RLU
41 | variant CD80 IgV-Fc (inert) V22A/E23D/Q33L/E35D/M47V (Fc fusion) | 0.7 fold | 390 RLU
42 | variant CD80 IgV-Fc (inert) V22A/E35D/V68E/A71D (Fc fusion) |  | 538 RLU
43 | variant CD80 IgV-Fc (inert) V22A/R29H/E35D/D46E/M47I (Fc fusion) | 5.9 fold | 3310 RLU
44 | variant CD80 IgV-Fc (inert) Y31S/E35D/M47L/T79L/E88G (Fc fusion) | 0.9 fold | 496 RLU
